Tested on: fibrin-related adhesions between the stomach and the liver, the intestines and the omentum
Assay: Acetic acid injury to the serosal surface of the rat stomach: formation of adhesions
Format: in vivo
Settings: minipump in abdominal cavity, outlet free and open; wound covered by chitosan membrane; up to 10 days
Procedure: The serosal surface of the stomach of an adult anaesthetised rat was exposed in an area of 7 mm diameter to 80% acetic acid over 60 seconds. After rinsing with buffered saline solution, an osmotic minipump (Alza 2001, volume about 220 μL; pumping rate about 1 μL/h; Alza Corp.; Palo Alto, Calif., USA; prefilled with a solution of the thrombin inhibitor melagatran, 2-100 μg/mL) was implanted into the peritoneal cavity, with the outlet of the pump kept open, and delivered its content into the abdominal cavity. The wounded area was covered by a chitosan membrane or, in an alternative experiment, a gel, having a diameter several millimeters larger than that of the injured area.
The serosal surface of the stomach of an adult, anaesthetised rat was exposed in an area of 7 mm diameter to 80% acetic acid over 60 seconds. After rinsing with buffered saline, the wounded area was covered by a chitosan membrane or, in an alternative experiment, a gel, having a diameter several millimeters larger than the injured area. An osmotic minipump (Alza 2001, volume about 220 μL; pumping rate about 1 μL/h; Alza Corp.; Palo Alto, Calif., USA; prefilled with a solution of the thrombin inhibitor melagatran, 2-100 μg/mL) was implanted subcutaneously, with the outlet of the pump kept open, delivering its content into the adjacent tissue. […]

B1: Actilyse: recombinant human tissue-plasminogen-activator; Boehringer Ingelheim (protein, UniProt P00750 36-562, looked up)
Tissue-type plasminogen …: SYQVICRDEKTQMIYQQHQSWLRPVLRSNRVEYCWCNSGRAQCHSVPVKSCSEPRCFNGGTCQQALYFSDFVCQCPEGFAGKCCEIDTRATCYEDQGISYRGTWSTAESGAECTNWNSSALAQKPYSGRRPDAIRLGLGNHNYCRNPDRDSKPWCYVFKAGKYSSEFCSTPACSEGNSDCYFGNGSAYRGTHSLTESGASCLPWNSMILIGKVYTAQNPSAQALGLGKHNYCRNPDGDAKPWCHVLKNRRLTWEYCDVPSCSTCGLRQYSQPQFRIKGGLFADIASHPWQAAIFAKHRRSPGERFLCGGILISSCWILSAAHCFQERFPPHHLTVILGRTYRVVPGEEEQKFEVEKYIVHKEFDDDTYDNDIALLQLKSDSSRCAQESSVVRTVCLPPADLQLPDWTECELSGYGKHEALSPFYSERLKEAHVRLYPSSRCTSQHLLNRTVTDNMLCAGDTRSGGPQANLHDACQGDSGGPLVCLNDGRMTLVGIISWGLGCGQKDVPGVYTKVTNYLDWIRDNMRP
For B1, which “fibrin network or strands of newly formed granulation tissue connecting the stomach with the liver, the intestines and the omentum” value is on record?
Its value is “No fibrin network, nor any strands of newly formed granulation tissue, could be detected”.

Source: patent publication US6174855A, “Pharmaceutical compositions comprising thrombin inhibitors and their use in the control of wound healing processes” (AstraZeneca AB, priority 1996, dated 2001)
